Reference: patent US20020004209A1, “Use of SLIM3 for binding to molecules” (Schering Aktiengesellschaft Patents, priority 1999, published 2002)

Tests used:
Assay in all cases: GST-protein-interaction test
Assay type in all cases: binding
Details in all cases: in vitro
[1] = target: T1, progesterone receptor beta (Homo sapiens, UniProt P06401)
T1 construct: made in house; host or cells: in vitro translation, 35S-methionine labelled
T1 sequence (P06401 1-933): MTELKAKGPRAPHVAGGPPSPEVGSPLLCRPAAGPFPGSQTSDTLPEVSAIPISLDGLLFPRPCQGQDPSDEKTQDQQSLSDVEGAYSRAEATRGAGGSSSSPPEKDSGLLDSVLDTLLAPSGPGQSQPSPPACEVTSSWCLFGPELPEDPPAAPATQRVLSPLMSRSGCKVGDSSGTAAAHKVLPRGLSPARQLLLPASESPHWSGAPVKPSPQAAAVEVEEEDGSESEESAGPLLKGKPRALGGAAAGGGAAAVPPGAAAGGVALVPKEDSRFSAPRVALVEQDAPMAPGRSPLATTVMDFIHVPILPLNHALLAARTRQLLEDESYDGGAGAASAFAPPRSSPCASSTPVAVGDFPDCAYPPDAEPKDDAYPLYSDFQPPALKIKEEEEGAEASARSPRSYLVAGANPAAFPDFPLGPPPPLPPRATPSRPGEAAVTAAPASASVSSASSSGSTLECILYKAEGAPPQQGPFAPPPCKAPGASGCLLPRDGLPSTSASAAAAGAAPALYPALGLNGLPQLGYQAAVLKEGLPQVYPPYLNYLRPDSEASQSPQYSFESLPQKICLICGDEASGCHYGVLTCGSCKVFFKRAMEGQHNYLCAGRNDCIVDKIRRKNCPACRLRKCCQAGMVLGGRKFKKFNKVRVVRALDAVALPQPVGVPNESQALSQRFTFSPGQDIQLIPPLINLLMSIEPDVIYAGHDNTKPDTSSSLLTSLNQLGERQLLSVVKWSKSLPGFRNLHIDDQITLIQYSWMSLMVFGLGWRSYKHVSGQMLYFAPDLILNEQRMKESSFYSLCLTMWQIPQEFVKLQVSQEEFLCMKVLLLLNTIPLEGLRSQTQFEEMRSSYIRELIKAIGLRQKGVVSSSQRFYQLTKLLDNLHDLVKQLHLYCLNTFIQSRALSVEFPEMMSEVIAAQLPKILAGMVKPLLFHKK
Method: (§1) To measure the interaction between SLIM3 and the nuclear receptors in vitro, the GST-Slim3 fusion protein was immobilized by means of glutathione-sepharose and incubated with several in vitro-translated ^35S-methionine-labeled nuclear receptors. The complete human androgen receptor binds to GST-Slim3. This in vitro interaction is not ligand-dependent under standard conditions. The complete human androgen receptor binds specifically to GST-Slim3, but not to the GST protein alone. To safeguard the specificity between the human androgen receptor and SLIM3, another GST-protein-interaction test was carried out (GST-protein-interaction assay). This test is described in E. PFITZNER et al. (1995) Functional Antagonism Between the Retinoid Acid Receptor and the Viral Transactivator BZLF1 is Mediated by Protein-Protein Interactions. Proc Natl Acad Sci USA Vol. 92, pp. 12265-12269.

co-activator TIF2 = co-activator TIF2 (Homo sapiens, UniProt Q15596)
co-activator TIF2, sequence (Q15596 whole entry): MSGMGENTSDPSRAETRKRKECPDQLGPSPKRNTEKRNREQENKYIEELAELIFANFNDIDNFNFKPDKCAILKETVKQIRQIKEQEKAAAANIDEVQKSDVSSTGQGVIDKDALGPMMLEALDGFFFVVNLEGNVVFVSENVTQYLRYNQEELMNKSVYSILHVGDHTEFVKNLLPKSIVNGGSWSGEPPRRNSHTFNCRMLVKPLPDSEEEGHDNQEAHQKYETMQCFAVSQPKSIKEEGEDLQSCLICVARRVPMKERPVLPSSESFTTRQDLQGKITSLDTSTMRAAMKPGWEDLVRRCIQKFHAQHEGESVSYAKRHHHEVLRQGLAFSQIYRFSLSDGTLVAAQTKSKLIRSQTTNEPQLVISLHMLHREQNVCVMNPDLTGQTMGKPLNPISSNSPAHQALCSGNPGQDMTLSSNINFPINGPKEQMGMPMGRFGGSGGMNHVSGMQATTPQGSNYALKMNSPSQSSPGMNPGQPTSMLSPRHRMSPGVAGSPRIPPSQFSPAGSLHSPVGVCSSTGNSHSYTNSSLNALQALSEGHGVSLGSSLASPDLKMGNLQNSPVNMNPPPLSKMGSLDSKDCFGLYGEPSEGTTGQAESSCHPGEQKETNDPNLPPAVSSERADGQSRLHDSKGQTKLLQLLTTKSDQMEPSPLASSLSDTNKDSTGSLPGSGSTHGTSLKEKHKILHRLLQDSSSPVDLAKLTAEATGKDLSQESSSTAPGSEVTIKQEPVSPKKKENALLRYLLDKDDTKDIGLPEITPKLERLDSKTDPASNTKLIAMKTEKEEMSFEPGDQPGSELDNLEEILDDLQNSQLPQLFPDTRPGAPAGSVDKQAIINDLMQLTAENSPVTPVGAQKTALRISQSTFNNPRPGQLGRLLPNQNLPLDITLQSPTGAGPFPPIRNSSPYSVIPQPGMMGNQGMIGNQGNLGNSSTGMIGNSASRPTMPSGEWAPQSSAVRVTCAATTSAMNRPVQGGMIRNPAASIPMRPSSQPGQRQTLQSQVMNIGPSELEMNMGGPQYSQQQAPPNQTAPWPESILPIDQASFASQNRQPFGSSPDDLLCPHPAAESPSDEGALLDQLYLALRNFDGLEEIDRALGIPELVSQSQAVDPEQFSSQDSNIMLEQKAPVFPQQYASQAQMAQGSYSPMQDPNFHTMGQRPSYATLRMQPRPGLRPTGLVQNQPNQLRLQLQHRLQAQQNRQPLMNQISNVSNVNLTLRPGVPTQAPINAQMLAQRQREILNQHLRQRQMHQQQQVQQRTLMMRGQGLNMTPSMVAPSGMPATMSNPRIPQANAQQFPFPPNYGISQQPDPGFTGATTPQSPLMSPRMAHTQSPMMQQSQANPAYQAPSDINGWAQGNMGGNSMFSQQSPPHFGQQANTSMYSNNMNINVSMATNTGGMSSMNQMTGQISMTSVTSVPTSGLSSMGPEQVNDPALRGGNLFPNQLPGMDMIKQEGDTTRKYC
co-activator TIF2, sequence (Q14192 whole entry partner): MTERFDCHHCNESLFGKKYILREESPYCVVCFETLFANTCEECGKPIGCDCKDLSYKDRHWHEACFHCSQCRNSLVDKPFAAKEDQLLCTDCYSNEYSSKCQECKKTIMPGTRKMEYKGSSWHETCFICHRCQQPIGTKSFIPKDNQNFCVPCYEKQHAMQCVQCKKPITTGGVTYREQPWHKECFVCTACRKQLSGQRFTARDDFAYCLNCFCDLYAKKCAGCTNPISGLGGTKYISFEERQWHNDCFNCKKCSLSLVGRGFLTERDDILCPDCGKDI
Method: as §1

glucocorticoid receptors = target: T2, glucocorticoid receptors (Homo sapiens, UniProt P04150)
T2 construct: made in house; host or cells: in vitro translation, 35S-methionine labelled
T2 sequence (P04150 1-777): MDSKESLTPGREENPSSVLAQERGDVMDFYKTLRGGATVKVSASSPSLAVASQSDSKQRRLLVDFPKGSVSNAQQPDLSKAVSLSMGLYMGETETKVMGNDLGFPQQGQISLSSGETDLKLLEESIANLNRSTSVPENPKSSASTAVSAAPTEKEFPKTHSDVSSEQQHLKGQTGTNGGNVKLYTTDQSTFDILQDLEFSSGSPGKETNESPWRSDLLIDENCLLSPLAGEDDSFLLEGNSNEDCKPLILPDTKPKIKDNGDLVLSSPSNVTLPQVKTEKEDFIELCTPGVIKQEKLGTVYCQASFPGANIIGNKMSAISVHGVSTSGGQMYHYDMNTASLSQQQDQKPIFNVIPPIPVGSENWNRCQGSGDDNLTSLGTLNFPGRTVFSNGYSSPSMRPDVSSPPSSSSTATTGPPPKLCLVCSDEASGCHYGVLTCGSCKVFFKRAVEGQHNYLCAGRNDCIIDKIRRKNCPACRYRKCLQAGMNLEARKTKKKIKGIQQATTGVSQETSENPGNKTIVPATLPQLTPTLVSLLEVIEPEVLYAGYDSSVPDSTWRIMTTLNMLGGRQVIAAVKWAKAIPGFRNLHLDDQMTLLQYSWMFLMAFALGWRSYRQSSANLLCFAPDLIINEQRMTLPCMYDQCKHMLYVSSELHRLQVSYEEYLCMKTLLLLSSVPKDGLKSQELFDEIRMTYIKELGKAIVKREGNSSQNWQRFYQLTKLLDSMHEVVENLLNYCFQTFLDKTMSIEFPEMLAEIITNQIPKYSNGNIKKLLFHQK
Method: as §1

[2] = target: T3, progesterone receptor alpha (Homo sapiens, UniProt P06401)
T3 construct: made in house; host or cells: in vitro translation, 35S-methionine labelled
T3 sequence (P06401 1-769 isoform P06401-2): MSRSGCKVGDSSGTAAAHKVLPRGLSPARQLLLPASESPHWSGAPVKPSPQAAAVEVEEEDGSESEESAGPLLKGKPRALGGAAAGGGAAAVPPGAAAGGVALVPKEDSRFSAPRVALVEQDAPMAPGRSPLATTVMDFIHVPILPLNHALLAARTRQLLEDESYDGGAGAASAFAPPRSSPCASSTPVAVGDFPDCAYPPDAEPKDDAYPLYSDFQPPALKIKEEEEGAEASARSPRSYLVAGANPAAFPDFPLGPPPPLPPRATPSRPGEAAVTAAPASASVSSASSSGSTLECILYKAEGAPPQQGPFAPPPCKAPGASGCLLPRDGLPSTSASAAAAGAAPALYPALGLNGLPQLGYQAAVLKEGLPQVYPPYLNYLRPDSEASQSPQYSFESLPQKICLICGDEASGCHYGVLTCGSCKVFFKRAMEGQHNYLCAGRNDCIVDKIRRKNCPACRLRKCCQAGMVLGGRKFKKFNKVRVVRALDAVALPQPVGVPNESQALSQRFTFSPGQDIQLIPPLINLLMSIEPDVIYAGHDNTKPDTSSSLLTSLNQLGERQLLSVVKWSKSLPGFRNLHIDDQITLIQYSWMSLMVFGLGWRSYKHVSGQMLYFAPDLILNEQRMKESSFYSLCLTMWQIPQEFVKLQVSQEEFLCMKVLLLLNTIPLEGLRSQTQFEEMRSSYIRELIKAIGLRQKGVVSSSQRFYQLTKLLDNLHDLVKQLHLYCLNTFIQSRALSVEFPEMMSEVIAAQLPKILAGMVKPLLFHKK
Method: as §1

bond to SLIM3 [1]: no bond
interaction with co-activator (co-activator TIF2): interacts
bond to SLIM3 (glucocorticoid receptors): no bond
bond to SLIM3 [2]: no bond
Substance: SLIM3: LIM-domain protein of 279 amino acids, co-activator for nuclear receptors AR and ERβ
